Where a chain is given by its changes, count along the chain named.
T1: BMP-7 (R&D Systems 354-BP) (UniProt P18075 293-431)
T1 sequence (looked up): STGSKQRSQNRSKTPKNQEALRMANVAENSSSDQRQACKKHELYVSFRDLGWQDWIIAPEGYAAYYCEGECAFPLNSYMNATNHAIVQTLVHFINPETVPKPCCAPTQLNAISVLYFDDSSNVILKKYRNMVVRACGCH

T2: 激活蛋白B (R&D Systems 659-AB) (UniProt P09529 293-407)
T2 construct: also called activin B
T2 sequence (looked up): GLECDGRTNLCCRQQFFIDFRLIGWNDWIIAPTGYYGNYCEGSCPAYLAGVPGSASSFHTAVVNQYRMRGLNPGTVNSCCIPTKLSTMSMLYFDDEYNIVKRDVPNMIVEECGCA

T3: 激活蛋白A (R&D Systems 338-AC) (UniProt P08476 311-426)
T3 construct: also called activin A
T3 sequence (looked up): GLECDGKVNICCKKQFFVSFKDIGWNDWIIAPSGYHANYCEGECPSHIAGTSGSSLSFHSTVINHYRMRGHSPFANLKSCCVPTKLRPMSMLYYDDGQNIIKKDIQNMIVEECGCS

T4: 重组人GDF-11(Peprotech公司，目录号120-11) (human, UniProt O95390 299-407)
T4 sequence (looked up): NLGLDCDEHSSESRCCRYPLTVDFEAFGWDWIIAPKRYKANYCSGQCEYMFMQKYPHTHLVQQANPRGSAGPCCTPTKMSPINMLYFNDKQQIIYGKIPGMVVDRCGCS

T5: TGF-b2 (Peprotech 100-35) (UniProt P61812 303-414)
T5 construct: also called TGF-β2
T5 sequence (looked up): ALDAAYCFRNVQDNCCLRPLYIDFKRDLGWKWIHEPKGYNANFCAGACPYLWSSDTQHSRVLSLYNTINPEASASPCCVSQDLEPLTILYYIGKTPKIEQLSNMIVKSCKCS

T6: BMP-6 (R&D Systems 507-BP) (UniProt P22004 382-513, limits assumed)
T6 sequence (looked up): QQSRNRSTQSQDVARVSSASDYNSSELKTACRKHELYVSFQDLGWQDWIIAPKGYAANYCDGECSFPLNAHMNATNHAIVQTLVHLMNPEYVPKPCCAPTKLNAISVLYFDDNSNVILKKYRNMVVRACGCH

T7: BMP-5 (R&D Systems 615-BM) (UniProt P22003 317-454, limits assumed)
T7 sequence (looked up): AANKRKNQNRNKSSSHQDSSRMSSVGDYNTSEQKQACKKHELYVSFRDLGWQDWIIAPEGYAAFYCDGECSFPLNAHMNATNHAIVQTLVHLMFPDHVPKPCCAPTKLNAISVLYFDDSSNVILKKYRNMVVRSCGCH

B1: 抗肌肉生长抑素Fab 3 (Fab, V domains shown)
VH: QVTLKESGPGILQSSQTLSLTCSLSGFSLRTSGMSVSWIRQSSGKGLEWLAHIYWDDDKRYNPSLRNRLTISKDTLRNQVFLKITSVGTADTATYYCARRAITTVIGGGTMDYWGQGTSVTVSS
VL: QIVLTQSPAIMSASPGEKVTMTCSASSSISYMHWYQQKPGTSPKRWIYDTSKLASGVPARFSGSGSGTSYSLTISSMEAEDAATYYCQQWYSNPLTFGAGTKLELKR
B2: 抗肌肉生长抑素Fab 7 (Fab, V domains shown)
VH: QVTLKSGPGILQSSQTLTLTCSLSGFSLTTSGMIVSWIRQSSGRGLEWLAHIYWDDDKRYNPSLRNRLTISKDTLRNQVFLWISSVGTADTATYYCARRAITTVIGGGTMDYWGQGTSVTVSS
VL: B1 VL
B3: 抗肌肉生长抑素Fab 5 (Fab, V domains shown)
VH: B1 VH with L24F, R30S, N67S, L76S, G88D, A101G, I106L
VL: B1 VL with I2V, P15L, I29V, S30H, P39S, Y91S

Legend:
Assay in all cases: ELISA, growth factor coated at 10 μg/ml, antibody at 10 μg/ml, mean of duplicates
[1] = target: T1, BMP-7 (R&D Systems 354-BP)
[2] = target: T8, TGF-a (R&D Systems 239-A) (UniProt P01135 40-89)
T8 construct: also called TGF-α

[3] = target: T2, 激活蛋白B (R&D Systems 659-AB)
[4] = target: BMP-2 (R&D Systems 355-BEC/CF) (UniProt P12643 283-396)
[5] = target: T3, 激活蛋白A (R&D Systems 338-AC)
[6] = target: T4, 重组人GDF-11(Peprotech公司，目录号120-11)
[7] = target: T5, TGF-b2 (Peprotech 100-35)
[8] = target: T6, BMP-6 (R&D Systems 507-BP)
[9] = target: T9, TGF-b1 (Peprotech 100-21R) (UniProt P01137 279-390)
T9 construct: also called TGF-β1

[10] = target: T7, BMP-5 (R&D Systems 615-BM)
[11] = target: IGF-1 (R&D Systems 291-G1) (UniProt P05019 49-118)
Chain of IGF-1 (R&D Systems 291-G1) (P05019 49-118 limits assumed): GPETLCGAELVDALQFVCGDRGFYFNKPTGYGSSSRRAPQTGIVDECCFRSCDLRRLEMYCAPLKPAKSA

T9 sequence (P01137 279-390 limits assumed): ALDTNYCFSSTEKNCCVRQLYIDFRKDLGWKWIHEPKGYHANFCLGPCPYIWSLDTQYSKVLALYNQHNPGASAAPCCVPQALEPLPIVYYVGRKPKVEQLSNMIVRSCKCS
T8 sequence (P01135 40-89 limits assumed): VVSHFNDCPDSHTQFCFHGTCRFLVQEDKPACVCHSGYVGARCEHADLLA
Chain of BMP-2 (R&D Systems 355-BEC/CF) (P12643 283-396 limits assumed): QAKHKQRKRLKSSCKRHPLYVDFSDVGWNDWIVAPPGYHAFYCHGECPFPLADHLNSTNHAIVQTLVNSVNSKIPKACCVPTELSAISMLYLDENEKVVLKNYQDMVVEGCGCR

| Binder | 平均吸光度 (OD 490 nm) [1] | 平均吸光度 (OD 490 nm) [2] | 平均吸光度 (OD 490 nm) [3] | 平均吸光度 (OD 490 nm) [4] | 平均吸光度 (OD 490 nm) [5] | 平均吸光度 (OD 490 nm) [6] | 平均吸光度 (OD 490 nm) [7] | 平均吸光度 (OD 490 nm) [8] | 平均吸光度 (OD 490 nm) [9] | 平均吸光度 (OD 490 nm) [10] | 平均吸光度 (OD 490 nm) [11] |
| --- | --- | --- | --- | --- | --- | --- | --- | --- | --- | --- | --- |
| B1 | 0.033 OD 490 nm | 0.033 OD 490 nm | 0.032 OD 490 nm | 0.0345 OD 490 nm | 0.033 OD 490 nm | 0.0705 OD 490 nm | 0.034 OD 490 nm | 0.0335 OD 490 nm | 0.034 OD 490 nm | 0.034 OD 490 nm | 0.034 OD 490 nm |
| B2 | 0.031 OD 490 nm | 0.0315 OD 490 nm | 0.031 OD 490 nm | 0.0335 OD 490 nm | 0.0325 OD 490 nm | 0.04 OD 490 nm | 0.0345 OD 490 nm | 0.035 OD 490 nm | 0.032 OD 490 nm | 0.0345 OD 490 nm | 0.034 OD 490 nm |
| B3 | 0.032 OD 490 nm | 0.033 OD 490 nm | 0.033 OD 490 nm | 0.032 OD 490 nm | 0.033 OD 490 nm | 0.034 OD 490 nm | 0.034 OD 490 nm | 0.0325 OD 490 nm | 0.0325 OD 490 nm | 0.033 OD 490 nm | 0.035 OD 490 nm |
